Experimental data: patent US20060029546A1, “Materials and methods for identifying anti-schizophrenic agents” (deCODE Genetics, Inc., priority 2004, published 2006)

Key:
ErbB4 [1] = molecular target: T1, ErbB4 (Homo sapiens, UniProt Q15303); test: ErbB4 tyrosine phosphorylation in differentiated BE(2)-M17 neuroblastoma cells; type: cell-based; details: stimulation for 10 minutes
T1 construct: host or cells: BE(2)-M17 neuroblastoma, retinoic-acid differentiated
Description: (§1) Studies were carried out to determine if NRG1 signaling, mediated by activation of Src-family kinases, results in changes in the phosphorylation state of regulatory tyrosine residues on NR2B. BE(2)-M 17 human neuroblastoma cells (ECACC No. 95011816) have a neuron-like appearance after differentiation for 72 hours in the presence of 10 μM retinoic acid (RA; Sigma, St. Louis, Mo.) (Hanada et al., Can. Res. 53: 4978-4986, 1993). […] As RA differentiation induces NR2B, but not NR2A, expression, it was expected that the functional NMDA receptor channels expressed in these cells comprised of NR1 and NR2B subunits. Stimulation of differentiated BE(2)-M17 cells with NRG1 for 10 minutes increased ErbB4 tyrosine phosphorylation (FIG. 2), increased Fyn/Src Tyr420 phosphorylation (indicative of increased Src-family kinase activity), and increased Pyk2 Tyr402 phosphorylation. Pyk2 Tyr402 is an auto-phosphorylation site involved in Src-family kinase recruitment (Dikic et al., Nature 383: 547-550, 1996). In addition, a coincident increase in NR2B Tyr1472 phosphorylation was also observed (FIG. 2). Thus, NRG1 signaling through ErbB4 modulates NR2B tyrosine phosphorylation in neuroblastoma cells.

Fyn [2] = test: Fyn phosphorylation in HEK293 cells stably expressing ErbB4 and Fyn-V5 (Western blot); type: cell-based
Description: (§2) To determine whether NRG1-induced activation of ErbB4 leads to Fyn phosphorylation, NRG1 exposure of HEK293 cells stably expressing ErbB4 and Fyn-V5 were activated with 7.2 nM NRG1 (R&D Systems; Minneapolis, Minn.) for 10 minutes and lysed using RIPA buffer. […] There was no change in Fyn Tyr531 phosphorylation. […] Fyn is activated either by dephophorylation of Tyr531 with loss of the SH2 domain interaction, or through displacement of the SH2 domain by a second tyrosine phosphorylated binding partner allowing auto-phosphorylation on the Fyn activation loop residue Tyr420. Alternatively, Fyn can be phosphorylated on Tyr420 and activated directly by a second kinase. Thus, the NRG1-stimulated increase in Fyn Tyr420 phosphorylation may be through stimulation of Fyn auto-phosphorylation, through phosphorylation of Fyn by ErbB4, or through phosphorylation of Fyn by an ErbB4 activated tyrosine kinase other than Fyn.
These alternatives were distinguished by applying PP2 (25 nM; Calbiochem, San Diego, Calif.) a relatively selective Src-family kinase inhibitor, to inhibit Fyn while ErbB4 signaling was stimulated with NRG1. […] Fyn was phosphorylated at a low level on Tyr420 under basal conditions. […] After NRG1 stimulation, an increase in Fyn Tyr420 phosphorylation was seen, even under conditions in which PP2 was used to inhibit p59 Fyn autophosphorylation. […] Thus, ErbB4 or an ErbB4 activated tyrosine kinase may phosphorylate Fyn on Tyr420 in response to NRG1 stimulation and activate the kinase directly.

ErbB4 [3] = test: ErbB4 tyrosine phosphorylation and kinase activity in CHO-K1 cells expressing ErbB4; type: cell-based
Description: The initial step of NRG1 signaling is activation of ErbB4 kinase activity and auto-phosphorylation on tyrosine residues. An increase in ErbB4 tyrosine phosphorylation and associated kinase activity was observed when CHO-K1 cells (ECACC Accession No. 85051005) expressing ErbB4 were exposed to NRG1 (recombinant human HRG-αEGF domain; R&D Systems, Minneapolis, Minn.) in serum free medium for 0-15 minutes. Following immunoprecipitation of ErbB4, kinase activity was measured using a peptide substrate. Maximum ErbB4 kinase activity was detected within 1 minute of NRG1 exposure but returned to the pre-stimulation level by 15 minutes.
Target sequence in this assay (Q15303 26-1308): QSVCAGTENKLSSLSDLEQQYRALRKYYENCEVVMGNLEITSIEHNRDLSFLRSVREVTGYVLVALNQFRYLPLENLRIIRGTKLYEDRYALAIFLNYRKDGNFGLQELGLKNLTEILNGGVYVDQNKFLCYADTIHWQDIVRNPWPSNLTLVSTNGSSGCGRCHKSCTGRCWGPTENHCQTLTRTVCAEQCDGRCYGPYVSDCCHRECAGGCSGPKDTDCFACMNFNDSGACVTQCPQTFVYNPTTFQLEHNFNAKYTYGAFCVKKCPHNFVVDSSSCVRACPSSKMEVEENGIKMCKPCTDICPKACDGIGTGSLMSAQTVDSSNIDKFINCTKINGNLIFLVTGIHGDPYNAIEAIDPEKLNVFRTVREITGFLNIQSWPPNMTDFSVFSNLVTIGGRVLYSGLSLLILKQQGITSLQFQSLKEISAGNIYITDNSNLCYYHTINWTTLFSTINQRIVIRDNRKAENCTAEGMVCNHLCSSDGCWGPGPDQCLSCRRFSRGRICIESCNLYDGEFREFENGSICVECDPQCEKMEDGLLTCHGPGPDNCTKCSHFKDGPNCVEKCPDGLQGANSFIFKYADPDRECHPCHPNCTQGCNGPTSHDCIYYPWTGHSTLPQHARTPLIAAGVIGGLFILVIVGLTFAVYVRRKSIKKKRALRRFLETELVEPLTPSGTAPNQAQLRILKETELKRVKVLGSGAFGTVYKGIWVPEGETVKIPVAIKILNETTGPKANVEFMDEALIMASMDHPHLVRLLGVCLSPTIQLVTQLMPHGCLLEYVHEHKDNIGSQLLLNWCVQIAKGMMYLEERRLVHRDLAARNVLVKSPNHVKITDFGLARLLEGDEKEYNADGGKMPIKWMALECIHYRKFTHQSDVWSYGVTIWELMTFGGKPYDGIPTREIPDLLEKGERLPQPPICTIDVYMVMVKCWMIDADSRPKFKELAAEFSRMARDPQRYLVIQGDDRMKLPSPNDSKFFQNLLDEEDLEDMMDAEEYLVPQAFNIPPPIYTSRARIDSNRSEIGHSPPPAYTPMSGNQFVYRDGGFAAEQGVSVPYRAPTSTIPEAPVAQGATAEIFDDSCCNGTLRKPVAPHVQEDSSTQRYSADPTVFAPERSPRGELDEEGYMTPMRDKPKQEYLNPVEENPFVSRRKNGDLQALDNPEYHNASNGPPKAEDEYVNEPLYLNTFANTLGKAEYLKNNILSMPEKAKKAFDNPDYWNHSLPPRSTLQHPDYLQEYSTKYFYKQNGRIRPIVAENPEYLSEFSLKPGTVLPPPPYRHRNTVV

Fyn/Src = Fyn/Src Tyr420 phosphorylation in differentiated BE(2)-M17 neuroblastoma cells; type: cell-based, human; details: stimulation for 10 minutes
Description: as §1

[4] = test system: MAPK pathway (serum response element luciferase reporter); test: SRE-luciferase reporter gene assay in CHO-K1 cells expressing ErbB4 or ErbB4 and Fyn; type: cell-based
Description: CHO-K1 cells expressing only ErbB4 were constructed, and subsequently a subclone co-expressing Fyn was identified. The parental ErbB4 expressing cell line and the subclone co-expressing ErbB4 and Fyn continued to express similar levels of ErbB4 as shown by Western blot. The cells also contained a reporter gene sensitive to MAPK pathway activation, the luciferase gene under the control of a promoter containing a serum response element (SRE). The cells were activated for 4 hours with 0-57.6 nM and the luciferase assay was performed using the Dual-Luciferase Reported assay system (Promega, Madison, Wis.) according to the manufacturer's instructions. Induction of the luciferase reporter gene by NRG1 was amplified two-fold (p<0.05) in cells co-expressing ErbB4 and Fyn as compared to cells expressing only ErbB4. No significant differences in baseline luciferase activity or in NRG1 EC50 (˜1 nM) were found between the two cell lines.

Pyk2 = Pyk2 Tyr402 phosphorylation in differentiated BE(2)-M17 neuroblastoma cells; type: cell-based, human; details: stimulation for 10 minutes
Description: as §1

ErbB4 [5] = test: ErbB4 tyrosine phosphorylation in HEK293 cells (Western blot); type: cell-based; details: HEK293 cells expressing ErbB4 and Fyn-V5, 7.2 nM NRG1 for 10 minutes
Description: as §2
Thus, NRG1-induced ErbB4 phosphorylation under conditions in which Fyn and related Src-family kinases were inhibited by PP2 (selective Src-family kinase inhibitor described above). […] This may result in the creation of additional SH2 domain docking sites, thus leading to further activation of Fyn as part of a positive feedback mechanism involving NRG1, ErbB4 and Src-family kinases.

Fyn [6] = test: Fyn kinase activity after NRG1 stimulation of cells; type: cell-based
Description: To test if the observed increase in Fyn Tyr420 phosphorylation was associated with enhanced catalytic activity, Fyn kinase activity was measured after NRG1 stimulation. Fyn kinase activity was increased within 5 minutes of NRG1 stimulation, reached maximum activity after 7 minutes, and returned to pre-stimulation levels within 15 minutes.

NR2B = NR2B Tyr1472 phosphorylation in differentiated BE(2)-M17 neuroblastoma cells; type: cell-based, human; details: stimulation for 10 minutes
Description: as §1

[7] = test system: NMDA receptor NR2B subunit; test: NR2B tyrosine phosphorylation in SK-N-BE(2)-M17 cells grown with retinoic acid; type: cell-based; details: immunoprecipitation, anti-phosphotyrosine Western blot
Description: To determine if D150838 modulates tyrosine phosphorylation of the NMDA receptor, SK-N-BE(2)-M17 cells were grown for 72 house in the presence of retinoic acid to induce expression of the NMDA receptor NR2B subunit. The cells were contacted with NRG1 or D150838, the NR2B subunit was immunoprecipitated, and the level of tyrosine phosphorylation was detected by Western blot analysis with an anti-phosphotyrosine antibody. […] Phosphorylation of tyrosine residue 1472 was detected after exposure to D150838.

MAPK p44/42 = MAPK p44/42 activation in HEK293 cells stably expressing ErbB4 and Fyn-V5; type: cell-based; details: 7.2 nM NRG1 for 10 minutes

Chain of Fyn (P06241 whole entry, species assumed, the tested form may be a part): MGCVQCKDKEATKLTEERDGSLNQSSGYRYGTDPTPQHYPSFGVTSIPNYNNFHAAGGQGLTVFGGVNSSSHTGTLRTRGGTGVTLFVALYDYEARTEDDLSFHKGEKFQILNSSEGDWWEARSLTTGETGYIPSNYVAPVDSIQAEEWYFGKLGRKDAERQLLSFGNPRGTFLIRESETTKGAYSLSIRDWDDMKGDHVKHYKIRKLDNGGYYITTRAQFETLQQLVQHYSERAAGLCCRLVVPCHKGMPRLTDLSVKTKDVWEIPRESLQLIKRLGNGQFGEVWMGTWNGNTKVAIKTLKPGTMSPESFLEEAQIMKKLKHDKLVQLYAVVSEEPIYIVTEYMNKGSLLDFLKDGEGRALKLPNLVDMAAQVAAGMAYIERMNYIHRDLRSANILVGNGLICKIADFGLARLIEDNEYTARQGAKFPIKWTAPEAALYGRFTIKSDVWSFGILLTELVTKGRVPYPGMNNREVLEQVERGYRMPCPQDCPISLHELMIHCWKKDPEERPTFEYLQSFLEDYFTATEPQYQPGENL
T1 sequence (Q15303 26-1308): as the sequence (Q15303 26-1308) above

B1: NRG1: recombinant human HRG-αEGF domain; R&D Systems; polypeptide growth factor Neuregulin 1 (protein)
chain: SHLVKCAEKEKTFCVNGGECFMVKDLSNPSRYLCKCQPGFTGARCTENVPMKVQNQEKAEELYQK
- ErbB4 tyrosine phosphorylation (ErbB4 [1]): increased
- Fyn Tyr420 phosphorylation (Fyn [2]; 7.2 nM NRG1 for 10 minutes): phosphorylation of Fyn on Tyr420
- Fyn Tyr531 phosphorylation (Fyn [2]; 7.2 nM NRG1 for 10 minutes): no change
- Fyn Tyr420 phosphorylation after NRG1 stimulation with PP2 present (Fyn [2]; PP2 used to inhibit Fyn autophosphorylation): increase
- time of return of ErbB4 kinase activity to pre-stimulation level (ErbB4 [3]; after NRG1 exposure): ≤ 15 min
- time to maximum ErbB4 kinase activity (ErbB4 [3]; after NRG1 exposure): ≤ 1 min
- ErbB4 tyrosine phosphorylation and associated kinase activity (ErbB4 [3]; serum free medium, 0-15 minutes): increase
- Fyn/Src Tyr420 phosphorylation (Fyn/Src): increased
- EC50 ([4]; 4 hours, 0-57.6 nM, no significant difference between the two cell lines, read-out: EC50, luciferase reporter induction): ~1 nM
- amplification of luciferase reporter induction in cells co-expressing ErbB4 and Fyn compared to cells expressing only ErbB4 ([4]; p<0.05): two-fold
- Pyk2 Tyr402 phosphorylation (Pyk2): increased
- ErbB4 tyrosine phosphorylation (ErbB4 [5]): tyrosine phosphorylation of ErbB4
- time of maximum Fyn kinase activity (Fyn [6]; after NRG1 stimulation): 7 min
- time of return of Fyn kinase activity to pre-stimulation levels (Fyn [6]; after NRG1 stimulation): ≤ 15 min
- time to increased Fyn kinase activity (Fyn [6]; after NRG1 stimulation): ≤ 5 min
- Fyn kinase activity (Fyn [6]; cells co-expressing Fyn and catalytically inactive ErbB4 D843A mutant): No increase
- NR2B Tyr1472 phosphorylation (NR2B): increase
- tyrosine phosphorylation of the NR2B subunit [7]: induced tyrosine phosphorylation
- MAPK p44/42 Thr202/Tyr204 phosphorylation (MAPK p44/42): increase
